Measured values: patent US6537804B1, “BCR-ABL directed compositions and uses for inhibiting Philadelphia chromesome stimulated cell growth” (Board of Regents, The University of Texas Systems, priority 1995, dated 2003)

How the values were obtained:
Assay type in all cases: biochemical
histone H1 = experiment: Immune complex kinase assay of mutant P160 BCR, transphosphorylation of histone H1
Excerpt: (§1) Mutant forms of P160^BCR were expressed in COS-1 cells and tested for serine/threonine kinase activities in immune complex kinase assays.
(§2) Using the intensities of the P160^BCR bands as an indication of the amount of active P160^BCR in the immune complex and the intensities of the casein bands as a measure of transphosphorylation activity, the transphosphorylation activity of the Y360F Bcr mutant was reduced about sevenfold, compared with that of the wild type. Similarly, the Y360F Bcr mutant was also defective in transphosphorylating another exogenous substrate, histone H1.

P160^BCR = biological target: T1, P160^BCR (Homo sapiens, UniProt P11274, Y360F); experiment: Immune complex kinase assay of mutant P160 BCR, autophosphorylation
T1 construct: The original human full length BCR cDNAs were obtained from Dr. John Groffen; expressed in transfected cells; host or cells: COS-1
T1 sequence (P11274 1-1271 Y360F): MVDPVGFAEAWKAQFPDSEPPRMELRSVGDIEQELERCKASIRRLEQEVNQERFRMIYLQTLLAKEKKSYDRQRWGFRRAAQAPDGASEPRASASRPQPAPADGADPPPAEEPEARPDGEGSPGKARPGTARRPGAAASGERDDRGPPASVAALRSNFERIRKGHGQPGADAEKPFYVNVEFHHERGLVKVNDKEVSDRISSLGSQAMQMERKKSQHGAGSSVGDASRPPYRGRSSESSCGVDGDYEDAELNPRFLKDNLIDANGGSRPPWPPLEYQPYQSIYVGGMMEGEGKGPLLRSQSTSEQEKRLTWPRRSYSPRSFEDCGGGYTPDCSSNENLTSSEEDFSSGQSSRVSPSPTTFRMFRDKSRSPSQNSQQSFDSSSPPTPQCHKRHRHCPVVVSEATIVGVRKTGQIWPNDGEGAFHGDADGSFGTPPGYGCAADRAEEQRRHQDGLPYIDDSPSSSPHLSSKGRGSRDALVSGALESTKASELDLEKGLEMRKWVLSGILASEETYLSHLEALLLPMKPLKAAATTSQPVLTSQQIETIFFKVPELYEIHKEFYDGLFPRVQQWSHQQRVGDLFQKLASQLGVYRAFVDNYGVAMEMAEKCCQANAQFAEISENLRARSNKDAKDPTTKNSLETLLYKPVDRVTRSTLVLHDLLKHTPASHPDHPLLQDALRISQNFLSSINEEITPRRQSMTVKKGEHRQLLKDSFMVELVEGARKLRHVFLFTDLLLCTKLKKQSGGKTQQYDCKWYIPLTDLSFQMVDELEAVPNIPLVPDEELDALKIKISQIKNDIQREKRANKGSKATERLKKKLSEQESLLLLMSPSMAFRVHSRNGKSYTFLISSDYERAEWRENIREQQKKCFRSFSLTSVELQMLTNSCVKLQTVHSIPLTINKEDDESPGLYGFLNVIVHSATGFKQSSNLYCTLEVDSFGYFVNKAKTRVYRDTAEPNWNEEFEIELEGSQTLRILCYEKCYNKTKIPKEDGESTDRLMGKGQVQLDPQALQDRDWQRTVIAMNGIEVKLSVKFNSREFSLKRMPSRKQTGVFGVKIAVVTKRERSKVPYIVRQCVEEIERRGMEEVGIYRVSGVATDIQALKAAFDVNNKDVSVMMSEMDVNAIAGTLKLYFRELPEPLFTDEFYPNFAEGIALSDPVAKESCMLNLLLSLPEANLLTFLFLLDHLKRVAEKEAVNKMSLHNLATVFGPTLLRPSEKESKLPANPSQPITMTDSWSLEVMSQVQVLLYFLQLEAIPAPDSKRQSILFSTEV
Excerpt: as §1

casein = experiment: Immune complex kinase assay of mutant P160 BCR, transphosphorylation of casein
Excerpt: as §1, §2
The amounts of Bcr within these immune complexes were quantitated in two ways. In a first method, the amounts of Bcr mutants would be underestimated by about 10%, compared with that of the wild type. On the basis of these measurements, the specific activity of transkinase activity (casein intensity/P160^BCR intensity) of the Y360F Bcr mutant (0.03) was reduced more than 20-fold in this study, compared with that of the wild type.
The second method of estimating the amounts of P160^BCR in immune complexes involved the Western blotting of these immune complexes with an anti-Bcr antibody. The specific activity of Y360F was reduced by about sixfold. […] By using autophosphorylation of the Bcr protein as a measure of its relative amount, the reduction of Bcr's transkinase by the Y360F mutation was about sevenfold, confirming the results obtained by the Western blot method.

[1] = first method of quantitating Bcr in immune complexes

B1: Y360F Bcr mutant: P160 BCR with tyrosine 360 to phenylalanine mutation, expressed in COS-1 cells (protein, UniProt P11274 1-1271, looked up, variant Y360F)
Breakpoint cluster region …: T1 sequence (P11274 1-1271 Y360F)
Transphosphorylation of histone H1 (histone H1): defective
P160^BCR autophosphorylation (P160^BCR): not detectably altered
Reduction of specific activity compared with wild type (casein; P160 BCR amount by Western blotting of immune complexes with anti-Bcr antibody): about sixfold
Reduction of transphosphorylation activity compared with wild type, relative to P160 BCR autophosphorylation band intensity (casein; casein band intensity / P160 BCR band intensity): about sevenfold
Reduction of specific transkinase activity compared with wild type (casein; [1]): more than 20 fold
Specific activity of transkinase activity (casein intensity/P160^BCR intensity) (casein; [1]): 0.03
Ability to transphosphorylate casein compared with wild-type Bcr (casein; mutant P160 BCR expressed in COS-1 cells): severely inhibited
